# Measured values from patent US12139520B2 (priority 2020, dated 2024).
# Numbered stars: 1 amine (or outer) side, 2 acyl side, 3 side chain; on linkers, the order of the positions; unused ones are H or OH. Bridge positions count the residues as written; N and C are the ends. Square brackets hold non-standard residues; d marks the D form. Side chains are listed from the residue outwards. Ends that are not written are not given here. * marks the point of attachment. C20 diacid = O=C(O)CCCCCCCCCCCCCCCCCCC(=O)*; γGlu = O=C(O)[C@H](CCC(=O)[*:2])N[*:1]; Hyp = O=C(O)[C@@H]1C[C@@H](O)CN1; Trx = NC[C@H]1CC[C@H](C(=O)O)CC1; AEEA = NCCOCCOCC(=O)O; Aib = CC(C)(N)C(=O)O
# Target: hAM1R (human, UniProt Q16602)
# Experiment: cell-based or functional assay
row,Binder,hAM1R EC50 (cAMP)
1,GCRFGTCTVQRLAHFLYQFTDKDKDNVAPRTKVGSNGY [SEQ ID NO: 117],51.6 nM
2,{C20 diacid-γGlu}-KCNTATCTVQRLAHQIEQFTDKDKDNVAPPTNVGSNG[Hyp]-NH2 (disulfide 2-7 (inferred); ends not checked) [SEQ ID NO: 110],> 5000 nM
3,{C20 diacid-γGlu}-KCNTATCTVARLAHQIAQFTDKDKDNVAPPTNVGSNG[Hyp]-NH2 (disulfide 2-7 (inferred); ends not checked) [SEQ ID NO: 107],647 nM
4,KCNTATCTVQRLAEQIYQFTDKDKDNK([AEEA-AEEA-γGlu-C20 diacid])APPTNVGSNG[Hyp]-NH2 (disulfide 2-7 (inferred); ends not checked) [SEQ ID NO: 12],> 5000 nM
5,GCRFGTCTVQRLAHQIYQFTDKDKDNVAPRTKIGPNG[Hyp]-NH2 (disulfide 2-7 (inferred); ends not checked) [SEQ ID NO: 124],34.8 nM
6,GCRTGTCTVQRLAHQIYQFTDKDKDNVAPRTNIGPQG[Hyp]-NH2 (disulfide 2-7 (inferred); ends not checked) [SEQ ID NO: 118],2980 nM
7,GCRFGTCTVQRLAHQIYQFTDKDKDNVAPRTNVSPQG[Hyp]-NH2 (disulfide 2-7 (inferred); ends not checked) [SEQ ID NO: 125],2980 nM
8,{C20 diacid-γGlu}-KCNTATCTVQRLAEQIYQFTAKDKDNVAPPTNVGSNG[Hyp]-NH2 (disulfide 2-7 (inferred); ends not checked) [SEQ ID NO: 106],> 5000 nM
9,KCNAATCTVQRLAEQIYQFTDKDKDNVAPPTNVGSNG[Hyp]-NH2 (disulfide 2-7 (inferred); ends not checked) [SEQ ID NO: 101],> 5000 nM
10,GCRFGTCTVQRLAHQIYQFTDKDKDNVAPRTKIGPQG[Hyp]-NH2 (disulfide 2-7 (inferred); ends not checked) [SEQ ID NO: 111],2980 nM
11,GCRTGTCTVQRLAHQIYQFTDKDKDNVAPRTNVGPQGY [SEQ ID NO: 109],2980 nM
12,GCRFGTCTVQRLAHQIYQFTDKDKDNVAPRTNVSPQGY [SEQ ID NO: 116],48.2 nM
13,{C20 diacid-γGlu}-KCNTATCTVQRLAHQIAQFTDKDKDPVAPPTNVGSNS[Hyp]-NH2 (disulfide 2-7 (inferred); ends not checked) [SEQ ID NO: 120],> 5000 nM
14,GCRFGTCTVQRLAHFLYQFTDKDGAIAPRTKIGSQGY [SEQ ID NO: 123],31.7 nM
15,KCNTATCTVQRLAHAIYQFTDKDKDNVAPPTNVGSNG[Hyp]-NH2 (disulfide 2-7 (inferred); ends not checked) [SEQ ID NO: 13],> 5000 nM
16,{C20 diacid-γGlu}-KCNTATCTVVRLAHQIYQFTDKDKDNVAPPTNVGSNG[Hyp]-NH2 (disulfide 2-7 (inferred); ends not checked) [SEQ ID NO: 103],> 5000 nM
17,GCRTGTCTVQRLAHQIYQFTDKDKDNVAPRSNVGPQG[Hyp]-NH2 (disulfide 2-7 (inferred); ends not checked) [SEQ ID NO: 121],2980 nM
18,GCRTGTCTVQRLAHQIYQFTDKDKDNVAPRTKIGPNG[Hyp]-NH2 (disulfide 2-7 (inferred); ends not checked) [SEQ ID NO: 115],130 nM
19,{C20 diacid-γGlu}-KCNT[Aib]TCTVQRLAHQIYQFTDKDKDNVAPPTNVGSNG[Hyp]-NH2 (disulfide 2-7 (inferred); ends not checked) [SEQ ID NO: 119],> 5000 nM
20,{C20 diacid-γGlu}-KCNTATCTVQRLAEQIYQFTDKDKDQVAPPTNVGSNG[Hyp]-NH2 (disulfide 2-7 (inferred); ends not checked) [SEQ ID NO: 100],> 5000 nM
21,{C20 diacid-γGlu}-KCNTATCTVQRLAEQIYQFTDKDKANVAPPTNVGSNG[Hyp]-NH2 (disulfide 2-7 (inferred); ends not checked) [SEQ ID NO: 108],> 5000 nM
22,{C20 diacid-γGlu}-KCNTATCTVDRLAHQIAQFTDKDKDNVAPPTNVGSNG[Hyp]-NH2 (disulfide 2-7 (inferred); ends not checked) [SEQ ID NO: 112],> 5000 nM
23,KCNTATCTVQRLAHQIYQATDKDKDNVAPPTNVGSNG[Hyp]-NH2 (disulfide 2-7 (inferred); ends not checked) [SEQ ID NO: 114],> 5000 nM
24,{C20 diacid-γGlu}-KCNTATCTVQRLAEQIYQFTDKAKDNVAPPTNVGSNG[Hyp]-NH2 (disulfide 2-7 (inferred); ends not checked) [SEQ ID NO: 122],> 5000 nM
25,{C20 diacid-Trx-γGlu-AEEA-AEEA}-KCNTATCTVQRLAEQIYQFTDKDKDNVAPPTNVGSNG[Hyp]-NH2 (disulfide 2-7 (inferred); ends not checked) [SEQ ID NO: 126],> 5000 nM
26,{C20 diacid-γGlu}-KCNTATCTVQRLAHQIYQFYDKDKDNVAPPTNVGSNG[Hyp]-NH2 (disulfide 2-7 (inferred); ends not checked) [SEQ ID NO: 104],> 5000 nM
27,GCRFGTCTVQRLAHQIYQFTDKDKDNVAPRTKISPNG[Hyp]-NH2 (disulfide 2-7 (inferred); ends not checked) [SEQ ID NO: 113],2980 nM
28,KCNTATCTVQRLAHQIYQFTDKDKDNVAPRTEVGSNGY [SEQ ID NO: 102],> 5000 nM
29,{C20 diacid-γGlu}-KCNTATCTVQRLAHQINQFTDKDKDNVAPPTNVGSNG[Hyp]-NH2 (disulfide 2-7 (inferred); ends not checked) [SEQ ID NO: 11],> 5000 nM
30,{C20 diacid-γGlu}-KCNTATCTVQRLAHQIAQFADKDKDNVAPPTNVGSNG[Hyp]-NH2 (disulfide 2-7 (inferred); ends not checked) [SEQ ID NO: 105],> 5000 nM

# Target: T1, hAMY3R (human, UniProt P30988)
# T1 sequence 1: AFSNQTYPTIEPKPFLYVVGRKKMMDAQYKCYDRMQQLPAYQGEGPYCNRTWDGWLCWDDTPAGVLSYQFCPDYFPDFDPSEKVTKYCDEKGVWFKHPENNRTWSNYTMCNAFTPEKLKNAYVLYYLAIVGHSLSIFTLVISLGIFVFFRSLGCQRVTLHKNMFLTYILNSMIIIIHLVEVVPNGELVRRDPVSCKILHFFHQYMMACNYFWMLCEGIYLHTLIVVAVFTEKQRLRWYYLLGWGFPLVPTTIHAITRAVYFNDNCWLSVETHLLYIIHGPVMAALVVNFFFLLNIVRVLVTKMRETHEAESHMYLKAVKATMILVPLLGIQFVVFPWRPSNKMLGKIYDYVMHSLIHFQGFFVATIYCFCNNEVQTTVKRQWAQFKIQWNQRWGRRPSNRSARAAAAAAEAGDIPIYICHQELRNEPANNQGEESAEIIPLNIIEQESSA
# T1 sequence 2: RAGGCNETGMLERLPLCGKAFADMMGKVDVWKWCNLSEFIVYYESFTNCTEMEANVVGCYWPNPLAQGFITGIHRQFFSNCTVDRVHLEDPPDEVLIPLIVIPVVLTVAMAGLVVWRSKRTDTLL
# Experiment: cell-based or functional assay
row,Binder,hAMY3R EC50 (cAMP)
1,GCRFGTCTVQRLAHFLYQFTDKDKDNVAPRTKVGSNGY [SEQ ID NO: 117],0.024 nM
2,{C20 diacid-γGlu}-KCNTATCTVQRLAHQIEQFTDKDKDNVAPPTNVGSNG[Hyp]-NH2 (disulfide 2-7 (inferred); ends not checked) [SEQ ID NO: 110],0.02 nM
3,{C20 diacid-γGlu}-KCNTATCTVARLAHQIAQFTDKDKDNVAPPTNVGSNG[Hyp]-NH2 (disulfide 2-7 (inferred); ends not checked) [SEQ ID NO: 107],0.019 nM
4,KCNTATCTVQRLAEQIYQFTDKDKDNK([AEEA-AEEA-γGlu-C20 diacid])APPTNVGSNG[Hyp]-NH2 (disulfide 2-7 (inferred); ends not checked) [SEQ ID NO: 12],0.007 nM
5,GCRFGTCTVQRLAHQIYQFTDKDKDNVAPRTKIGPNG[Hyp]-NH2 (disulfide 2-7 (inferred); ends not checked) [SEQ ID NO: 124],0.027 nM
6,GCRTGTCTVQRLAHQIYQFTDKDKDNVAPRTNIGPQG[Hyp]-NH2 (disulfide 2-7 (inferred); ends not checked) [SEQ ID NO: 118],0.024 nM
7,GCRFGTCTVQRLAHQIYQFTDKDKDNVAPRTNVSPQG[Hyp]-NH2 (disulfide 2-7 (inferred); ends not checked) [SEQ ID NO: 125],0.027 nM
8,{C20 diacid-γGlu}-KCNTATCTVQRLAEQIYQFTAKDKDNVAPPTNVGSNG[Hyp]-NH2 (disulfide 2-7 (inferred); ends not checked) [SEQ ID NO: 106],0.018 nM
9,KCNAATCTVQRLAEQIYQFTDKDKDNVAPPTNVGSNG[Hyp]-NH2 (disulfide 2-7 (inferred); ends not checked) [SEQ ID NO: 101],0.017 nM
10,GCRFGTCTVQRLAHQIYQFTDKDKDNVAPRTKIGPQG[Hyp]-NH2 (disulfide 2-7 (inferred); ends not checked) [SEQ ID NO: 111],0.021 nM
11,GCRTGTCTVQRLAHQIYQFTDKDKDNVAPRTNVGPQGY [SEQ ID NO: 109],0.02 nM
12,GCRFGTCTVQRLAHQIYQFTDKDKDNVAPRTNVSPQGY [SEQ ID NO: 116],0.024 nM
13,{C20 diacid-γGlu}-KCNTATCTVQRLAHQIAQFTDKDKDPVAPPTNVGSNS[Hyp]-NH2 (disulfide 2-7 (inferred); ends not checked) [SEQ ID NO: 120],0.025 nM
14,GCRFGTCTVQRLAHFLYQFTDKDGAIAPRTKIGSQGY [SEQ ID NO: 123],0.027 nM
15,KCNTATCTVQRLAHAIYQFTDKDKDNVAPPTNVGSNG[Hyp]-NH2 (disulfide 2-7 (inferred); ends not checked) [SEQ ID NO: 13],0.007 nM
16,{C20 diacid-γGlu}-KCNTATCTVVRLAHQIYQFTDKDKDNVAPPTNVGSNG[Hyp]-NH2 (disulfide 2-7 (inferred); ends not checked) [SEQ ID NO: 103],0.018 nM
17,GCRTGTCTVQRLAHQIYQFTDKDKDNVAPRSNVGPQG[Hyp]-NH2 (disulfide 2-7 (inferred); ends not checked) [SEQ ID NO: 121],0.026 nM
18,GCRTGTCTVQRLAHQIYQFTDKDKDNVAPRTKIGPNG[Hyp]-NH2 (disulfide 2-7 (inferred); ends not checked) [SEQ ID NO: 115],0.023 nM
19,{C20 diacid-γGlu}-KCNT[Aib]TCTVQRLAHQIYQFTDKDKDNVAPPTNVGSNG[Hyp]-NH2 (disulfide 2-7 (inferred); ends not checked) [SEQ ID NO: 119],0.024 nM
20,{C20 diacid-γGlu}-KCNTATCTVQRLAEQIYQFTDKDKDQVAPPTNVGSNG[Hyp]-NH2 (disulfide 2-7 (inferred); ends not checked) [SEQ ID NO: 100],0.017 nM
21,{C20 diacid-γGlu}-KCNTATCTVQRLAEQIYQFTDKDKANVAPPTNVGSNG[Hyp]-NH2 (disulfide 2-7 (inferred); ends not checked) [SEQ ID NO: 108],0.019 nM
22,{C20 diacid-γGlu}-KCNTATCTVDRLAHQIAQFTDKDKDNVAPPTNVGSNG[Hyp]-NH2 (disulfide 2-7 (inferred); ends not checked) [SEQ ID NO: 112],0.021 nM
23,KCNTATCTVQRLAHQIYQATDKDKDNVAPPTNVGSNG[Hyp]-NH2 (disulfide 2-7 (inferred); ends not checked) [SEQ ID NO: 114],0.022 nM
24,{C20 diacid-γGlu}-KCNTATCTVQRLAEQIYQFTDKAKDNVAPPTNVGSNG[Hyp]-NH2 (disulfide 2-7 (inferred); ends not checked) [SEQ ID NO: 122],0.026 nM
25,{C20 diacid-Trx-γGlu-AEEA-AEEA}-KCNTATCTVQRLAEQIYQFTDKDKDNVAPPTNVGSNG[Hyp]-NH2 (disulfide 2-7 (inferred); ends not checked) [SEQ ID NO: 126],0.027 nM
26,{C20 diacid-γGlu}-KCNTATCTVQRLAHQIYQFYDKDKDNVAPPTNVGSNG[Hyp]-NH2 (disulfide 2-7 (inferred); ends not checked) [SEQ ID NO: 104],0.018 nM
27,GCRFGTCTVQRLAHQIYQFTDKDKDNVAPRTKISPNG[Hyp]-NH2 (disulfide 2-7 (inferred); ends not checked) [SEQ ID NO: 113],0.022 nM
28,KCNTATCTVQRLAHQIYQFTDKDKDNVAPRTEVGSNGY [SEQ ID NO: 102],0.018 nM
29,{C20 diacid-γGlu}-KCNTATCTVQRLAHQINQFTDKDKDNVAPPTNVGSNG[Hyp]-NH2 (disulfide 2-7 (inferred); ends not checked) [SEQ ID NO: 11],0.007 nM
30,{C20 diacid-γGlu}-KCNTATCTVQRLAHQIAQFADKDKDNVAPPTNVGSNG[Hyp]-NH2 (disulfide 2-7 (inferred); ends not checked) [SEQ ID NO: 105],0.018 nM
